# In the DeepSol protein solubility set:
# Assay: soluble on expression in E. coli; label from the status in PepcDB or PDB records
row,Sequence,soluble on expression in E. coli
1,MGSDKIHHHHHHMLFANSLENQLQQWNEVISKQPNNPNAYIRRGMVQFQLAKIEESIDDFDTAEKLDNRIKPYLWQRGLSYYYADRFAEGAQQFEIDLTVNSQDVEETVWRYLCMARLVGVTEARNNLLTVKNDPRLIMRSVYDLFAGHCTPDNVFNIGQTEGNKGKFYSHLYLGLYYEAENNLPLAQEYIVKAADKYKLDDYMWYLAQVHKKLRGWM,not soluble
2,SNAMRIGHGFDVHKFGENGSGPLIIGGVRIPYEKGLLAHSDGDVALHAATDALLGAAALGDIGKLFPDTDPAFKGADSRGLLREAYRRILAKGYKLGNLDITIIAQAPKMAPHIPQMRVNLAEDLQCHMDDINVKATTTEQLGFTGRGEGIACEAVVLLVNVEQG,soluble
3,MDYNVKDFGALGDGVSDDRASIQAAIDAAYAAGGGTVYLPAGEYRVSAAGEPGDGCLMLKDGVYLAGAGMGETVIKLIDGSDQKITGMVRSAYGEETSNFGMRDLTLDGNRDNTSGKVDGWFNGYIPGGDGADRDVTIERVEVREMSGYGFDPHEQTINLTIRDSVAHDNGLDGFVADYLVDSVFENNVAYANDRHGFNVVTSTHDFVMTNNVAYGNGSSGLVVQRGLEDLALPSNILIDGGAYYDNAREGVLLKMTSDITLQNADIHGNGSSGVRVYGAQDVQILDNQIHDNAQAAAVPEVLLQSFDDTAGASGTYYTTLNTRIEGNTISGSANSTYGIQERNDGTDYSSLIDNDIAGVQQPIQLYGPHSTVSGEP,soluble
4,MDNGTDSSTSKFVPEYRRTNFKNKGRFSADELRRRRDTQQVELRKAKRDEALAKRRNFIPPTDGADSDEEDESSVSADQQFYSQLQQELPQMTQQLNSDDMQEQLSATVKFRQILSREHRPPIDVVIQAGVVPRLVEFMRENQPEMLQLEAAWALTNIASGTSAQTKVVVDADAVPLFIQLLYTGSVEVKEQAIWALGNVAGDSTDYRDYVLQCNAMEPILGLFNSNKPSLIRTATWTLSNLCRGKKPQPDWSVVSQALPTLAKLIYSMDTETLVDACWAISYLSDGPQEAIQAVIDVRIPKRLVELLSHESTLVQTPALRAVGNIVTGNDLQTQVVINAGVLPALRLLLSSPKENIKKEACWTISNITAGNTEQIQAVIDANLIPPLVKLLEVAEYKTKKEACWAISNASSGGLQRPDIIRYLVSQGCIKPLCDLLEIADNRIIEVTLDALENILKMGEADKEARGLNINENADFIEKAGGMEKIFNCQQNENDKIYEKAYKIIETYFGEEEDAVDETMAPQNAGNTFG,soluble
5,MSLKITRIEAIPYAIPYSRPLKFASGEVSTAEHVLVRIHTDAGICGVADTPPRPYTYGETQDSIVSVVTKVFAPQLIGMDPMDRSKVQQLLGRTVNNPTAKGALDIALWDVIGISLGTPVHKLLGGFSDSMRVSHMLGFKAAAELLEEALRFRETYGIDTFKLKVGRRPLSLDVEACHVLREGLGADTEIYLDANRGWTANEAMEVLRRTEGLGLSMLEEPCDAAEAMGRRRLVQHSSIPIVGDESVPNLGDVSRELLSGGSNAICIKTARSGFTEAQQILGLCEGLGVDVTMGNQIDTQVGSLATVTFGAAFEASSRRAGELSNYLDMTDDLLAEPLEITDGAIRVRKAPGVGAAIDADKLQKYREGHHHHHH,soluble
6,MSDDIFRLATVEDASELLKLVNSAFQPIRQLDIDWPSTRADIQMVSENIEHHSAIVLERDGKLISTITIRFPWESETPPSKYPFVWWFATLPEYKGQGAGSKLLTYVEEKVLRDMLKAPALTLGTSARKHPWLADMYRRRGYEVYFEQEKDGDIGVMMHKVLIPERFNPTLLGAPSWA,soluble
7,MTQPAIQLTEYQRKWIEDKSRFKISLKARQTGFSFAVSLEVVLDAVERRTTWVLLSRGERQSKELMEKVAMHARAIGVACEELETTFKIDDKDIKQLEVRFPNGSKVIGLPANPDTARGFSGNVVLDEFAFHADSRKIWTALYPTITRGYKIRVISTPNGKSGKFYDLWMDNTGTWSKHFVDIYMAKEQGLDIDIDELRKGCESEDDWLQEFCCEFIDENGALLPYELITPCETDEATFTLPEDFTPQGDLTLGVDIGRKRDLTVMWVLEYTGTLYWTRAIHILEKQKFSVQREQLFTYLSMPRMRRACIDATGIGMQLAEEAVEAFGSKVEAVEFTGPVKQELAITQRRVFEDRAVRIPIDRVLRNDLHSVQKITTAAGNIRYAAERSEHGHADRFWALALALHAAINNPFVPLETKVARHSTMRRAMEGYG,not soluble
8,MCMSVFKRLRDLTMSNVYSLIEKAEDPVKMTDQYLRDMQADVQEAEKSVAAQIALEKKFKILFEEQEALVKKREEQAHMAVQASNLDLARRALEEKQNAEQKMNEYKASYEQNKAAADNLRLKLEEMRKQLTELKNKRETLVARVNAAKAQKNINQAMSGFDSNSAKAGLSRMEEKALQLEAEAEASGEVYKKEKSLDDEFASLNKNSAVDDELARIMKQYEKMAGDPLEHHHHHH,not soluble
9,PKGSIIVSTRAPVGYVAIVDEDTTFNQGCKGLIPKSSEINTEFYCYYLLLIKRKLEQLSGGSTFKELPKKSLEELLIPLLPLPEQQKIAEILSTV,soluble
10,MLDTLLINIGQLLTMDQEDGLLRREAMNTLPVIENGVVGIENGVITFVGTAEEAKGLQAKEVIDSGGKMVSPGLVDPHTHLVFGGSRENEIALKLQGVPYLEILEQGGGILSTVNATKQASKEELVQKAKFHLDRMLSFGVTTVEAKSGYGLDDETEWKQLEATAQLQKEHPIDLVSTFLGAHAVPKEYKGRSKEFLQWMLDLLPEMKEKQLVEFVDIFCETGVFSVEESKEFLLKAKELGFDVKIHADEIDPLGGAEAAAEIGAASADHLVGASDKGIEMLANSNTVATLLPGTTFYLNKESFARGRKMIDEGVAVALATDFNPGSCPTENIQLIMSIAMLKLKMTPEEVWNAVTVNSSYAINRGDVAGKIRVGRKADLVLWDAYNYAYVPYHYGVSHVNTVWKNGNIAYTRGEQSWSTATI,not soluble
11,MTLSAIQPNDMALYHYDSCPFCAKTRHAINELDLNIELRNIQKNHQHRIELQQGGNKTQVPCLRIGQSNGKAQWLYESGDIINFLRNRK,not soluble
12,MVQESIISSFRGKLENDPSKSTSLATVETLLEVLDRSRATTVAEFQNELNQVVAALEKTDYSSTSIRSAADLFTRFTSLAPAALLDQEDFSQVLDLYRQRARSFIKNVRGSRAKISKCARLFFTHHMNILTHSYSKVVLETILDAHKSGYHLHVWVTESQPDASGKLVFEELKKNGVPTTLVLDSCVGYVMERIQAVLVGAEGVMETGGIINKIGTVNVCIIAKSRHVPVYVCAETIKFVREFPLNQADIPQEFKYRTSVIERNNLELEHPDVDYTAPEFLTLIITDVGAMKPEAVGEELIKMYI,not soluble
13,MGSDKIHHHHHHMPEFNYQKAFPLKKDPTPYKLISTDYVSTIEVDGRKILKIDPKALELVAEKALADVSFYLRSSHLEKLAKIIKDPEATDNDRFVAYTLLQNASTAGEGKLPSCQDTGTAIVMGKKGENVWTGANDEEALSKGIYNTYQEKNLRYSQVVPITMFEEKNSGTNLPAQIDIYAEQGNEYKFLFMAKGGGSANKTYLYQQTKALLNENSLAEFVKNKIKDLGTSACPPYHLALVIGGTSAEANLKAVKLASAGYYDELPTEGNMGGQAFRDLEWEEKVQLICQESLIGAQFGGKYFTHDVKVIRLPRHAASCPVGIGVSCSADRNIKAKITEEGIFIEALETNPEKFLPAQAPHLEKAVEVDLNQPMADVLKLLSQYPIKTRLKLKGTLIVARDIAHAKIKELLDAGKPMPEYFKNHPVYYAGPAKTPEGMPSGSFGPTTAGRMDSYVNLFQSQGGSMIMLAKGNRSKAVTDACKEFGGFYLGSIGGPAAILAKENIKSVEVVDFEELGMEAVRKIEVVDFPAFIICDDKGNDFFANL,not soluble
14,MGSDKIHHHHHHMSFSLRNYQVELILDIKKSMLAGHRKIMVQSPPRSGKTVCMAHIAKNATNKQKTVLFFSHRKEINEQVFETFSRAGVDMGLVYIGTVGSIVRKLGKLPVPTLVLVDEAHHIKASQYQQILKYYHQAVQLFFTGTPIRLDGSGFDDMADDLVVGKSILWLQEHGNISEFDYYSINLLDQAKLRKRQGEYTNQSIDDSFDFSNSTAIT,not soluble
15,MGSDKIHHHHHHMALYKTESGEIHLVRDICPHRGVPLTKGWVDGEEIVCPYHGLRYNTEGKCTQIPAQPELTKISDRFSLTKFPVVQRYGLIWTSIHGRDVTQANIPVLDTWDDAEHQAILPPFVDIGGSSGRQLEGFIDVAHFAWVHHNAFANRDNPIVPKYHTERTNYGLKTVYISNVSNYPHELKHLEPEGFLWKRTFEVYPPFSAVLTVDFPEGGILKILNACCPISSNKTRLFVPLTRNFDQTGDLEKVYAFNAQIFAEDQDMVESQKPEELPLDLMMEAHFEADRSSTTYRRILAEWGLSKRYTV,not soluble
16,MMSMKIFETTAPHPEASLLTAFSKNALDRFAEKRTEECVAEALKVDGTHIFAFSGNRLVLKHDEQVIDPLFSAYELAELQPDFDNAVLLGYRETGEPRIAVPVAVAEDQLASHYKLADARTLYRDHLLDEELLSEVAQAVSLTHWNADNRFCGRCGGTMEQRIGGYKRICASCSHTIFPRTDPVVIMMTIDIERDLCLLGRGAHFASGMYSCLAGFVEPGETIEQAVRRETHEESGVEIGRVRYHASQPWPMPHTLMIGCYAEALSSDIARDEIELEDCRWFTREEVAKMLEAPAGEGFSAPPIGAIAHRLMRDWVEWPE,soluble
17,MSLVNDITYGREAEVWPRDYSMLARRIQFLRFNDYPIKLVSSNGHSIIGYISKFNQKENMILASDEAKGNNRVEVKLESIASLEELLVGKDFTTRLIVGDVFNNQPCPPTKKDFFSICNKCFKQGIGIKVHMLDGRILTGKTTGVNACQVGIIKSNGNHMQIMFDWVSRITSSDYSGEGHHHHHH,soluble
18,MRRLLLASSLLTLLAGCANHVIDPHGYDETGTAAYYGTRHHGNRTASGEPFNQNALTAAHRQLPFGTRVKVTNLNNDKSVIVRVNDRGPHTRGRLIDVSREAAEQLGMLRSGTAPVRVQALD,not soluble
19,MPEGFDAYCICTGTPTARDLSIPGRELKGIHFALEMLAQQNRILEGQTFPKDKLVNAKGKKVLVIGGGDTGSDCIGTSVRQGATSVTQIEIMPKPPVGHNPSTPWPQWPVVFKTTSSHEEGCTRRWCLTSNQFLGKNGKVTGVEVEEVEWTPATDGGRPTMNLTGKKEVIEADMVLLAMGFLKPEQPKFAENVFLAGDAATGASLVVRAMAGGRKAAADIDHYLEHHHHHH,not soluble
20,VLTCNEAFARMRGQSVKEIEGSSIVSLYAPEDQQMVKDKLKITDSTGFCSCQAKMMRKDGTIFPVQIDVVGLKDENGQIMYRIVTVQDSTER,not soluble
21,MSLARFVVLVIDSFGVGAMKDVTLVRPQDAGANTCGHILSQLPHLQLPTLETLGLINALGYAPGDMQPSDSATWGVAELQHEGGDTFMGHQEILGTRPLPPLRMPFRDVIDRVEQALVSAGWQVERRGDDLQFLWVNQAVAIGDNLEADLGQVYNITANLSVISFDDAIKIGRIVREQVQVGRVITFGGLLTDSQRILDAAESKEGRFIGINAPRSGAYDNGFQVVHMGYGVDEKVQVPQKLYEAGVPTVLVGKVADIVNNPYGVSWQNLVDSQRIMDITLNEFNTHPTAFICTNIQETDLAGHAEDVARYAERLQVVDRNLARLVEAMQPDDCLVVMADHGNDPTIGHSHHTREVVPVLVYQQGMIATQLGVRTTLSDVGATVCEFFRAPPPQNGRSFLSSLRFAGDTLEGHHHHHH,soluble
22,MSLTQEFIDKVSSYLTPDVDIAPISQGAEAIVFTTTTHPYLPRAKDSHQKYIIKYRPPKRYRHPQIDQALTKHRTLNESRLLAKLYLIPGLCVPQLIACDPYNGFIWLEFLGEDLPGGHGFSNLKNFLWMHDQDPYSDLVATTLRKVGRQIGLLHWNDYCHGDLTSSNIVLVRDGARWTPHLIDFGLGSVSNLVEDKGVDLYVLERAILSTHSKHAEKYNAWIMEGFEEVYREQGAKGAKKLKEVTKRFEEVRLRGRKRSMLGEGHHHHHH,not soluble
